Literature values, collected in PMC5100577.

Biological target: H2A-H2B dimer (Saccharomyces cerevisiae) (UniProt P04911)
Assay: fluorescence dequenching

UniProt P04911, sequence (P04911 2-132, chain 1 of 2): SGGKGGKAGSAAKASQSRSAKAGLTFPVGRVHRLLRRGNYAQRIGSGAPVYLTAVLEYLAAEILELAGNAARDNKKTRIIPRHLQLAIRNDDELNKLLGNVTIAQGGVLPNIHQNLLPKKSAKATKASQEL
UniProt P04911, sequence (P02293 2-131, chain 2 of 2, further chain): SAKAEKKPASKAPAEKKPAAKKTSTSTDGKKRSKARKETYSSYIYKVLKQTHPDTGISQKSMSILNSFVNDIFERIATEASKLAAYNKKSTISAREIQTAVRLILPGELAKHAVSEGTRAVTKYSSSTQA

Kd: 21.4 nM
Substance: FACT (from UniProt P32558)
